Results reported in patent US20240309076A1 (REGENXBIO, published 2024).

Molecular target: Tau and AD-associated Tau in brain tissue and brain extracts of patients with tauopathy (AD, PSP, PiD) (human, UniProt P10636-8 2-441, limits assumed, pathologically hyperphosphorylated and aggregated; the sites are not specified)
Experiment: cell-based or functional assay

Tau and AD-associated Tau in brain tissue and brain extracts of patients with tauopathy (AD, PSP, PiD), sequence (P10636 other isoform, or with tags, fused parts or gaps limits assumed): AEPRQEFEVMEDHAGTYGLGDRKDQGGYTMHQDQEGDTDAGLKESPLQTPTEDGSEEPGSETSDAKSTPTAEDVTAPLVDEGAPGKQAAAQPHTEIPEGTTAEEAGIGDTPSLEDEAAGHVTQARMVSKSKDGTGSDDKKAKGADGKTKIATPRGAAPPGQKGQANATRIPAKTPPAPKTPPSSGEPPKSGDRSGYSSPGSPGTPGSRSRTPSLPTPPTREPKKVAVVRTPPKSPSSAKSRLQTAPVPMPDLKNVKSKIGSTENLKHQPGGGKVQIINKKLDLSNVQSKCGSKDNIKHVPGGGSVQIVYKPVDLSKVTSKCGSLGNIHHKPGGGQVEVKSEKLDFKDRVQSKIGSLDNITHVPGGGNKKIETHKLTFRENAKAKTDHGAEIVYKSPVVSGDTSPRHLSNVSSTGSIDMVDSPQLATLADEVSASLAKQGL

B1: NI-502.8H1 (antibody, V domains shown)
VH: EVQLVESGGGLVQPGGSLRLSCAASGFTFSIYTMSWVRQAPGKGLEWVSAILSDGSTYYADSVEGRFTISRDNSKTTLYLQMNSLTAEDTAVYYCTKRVEGSFRGWGQGTLVTVSS
VL: EIVMTQSPGTLSLSPGESATLSCRASQSVSTTYLAWYQQKPGQAPRLLIYGASSRATGIPDRFSGSGSGTDFTLTISRLEPEDFAVYYCQQYGGSRLITFGQGTRLEIK
  IC50 of Tau aggregation (integrated FRET density) in HEK293T Tau biosensor cells after immunodepletion of AD brain homogenate: 7.1 µg/mL

B2: NI-502.4P3 (antibody, V domains shown)
VH: EVQLVQSGAEVKKPGESLKISCKVSGYDFSKYWIGWVRQMPGKGLEWMGLIYPGDSDTRYSPSLEGQVSISADKSISAAYLQFSSLKASDSAMYYCVRKGYSAYLGGWFDPWGQGTLVTVSS
VL: DIQLTQSPDSLAASLGERVTINCRSSQNIFYNSNNKNFLAWYQQKAGQSPKLLIYWASTRESGVPDRFSGSGSGTDFTLTISGLQAGDVAVYFCQQYFTDAPTFGGGTKVEIK
  IC50 of Tau aggregation (integrated FRET density) in HEK293T Tau biosensor cells after immunodepletion of AD brain homogenate: 6.5 µg/mL
